These results are taken from the RNAGym collection of RNA variant scans (doi:10.1073/pnas.2313332121).

First the molecules themselves.
B1: TPR t1 (parent)
chain: GACCAAUCUGCCCUCAGAGCUCGAGAACAUCUUCGGAUGCAGAGGAGGCAGGCUUCGGUGGCGCGAUAGCGCCAACGUCCUCAACCUCCAAUGCAUCCCACCACAUGAUGAUGCCUGAAGAGCCUUGGUUUUUUG

Variants of B1 are the subject of the data set. In words: polymerase ribozyme fitness, log enrichment relative to wild type (log ratio); higher = more active; in vitro selection for triplet polymerase activity. A digest of the protocol:
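Input and output libraries were sequenced on Illumina after a single in vitro selection round, run in triplicate on PCR-built, transcribed mutant libraries of each subunit of a heterodimeric triplet polymerase ribozyme. Selection annealed libraries to a biotinylated primer, the partner subunit and triplets, incubated them frozen at −7 °C, then gel-excised extended constructs for streptavidin-bead capture and RT-PCR. Genotypes with ≥10 input reads and ≥1 read per output were kept. Fitness is the logarithm, taken in base 2, of genotype enrichment divided by wild-type enrichment, using inverse-variance-weighted replicate averages.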
In the case of C8G G42U G60C U81A U129G, the “polymerase ribozyme fitness (log ratio)” value was -6.22.
A29G G77U: the “polymerase ribozyme fitness (log ratio)” value was -1.38.
Then C20U C85U A100U, with -3.48; and G47U C124A, with -0.524; and U9G C11U A27G G47C U78C C86U, with -2.22.
With A16G C56A G71U C124A U130A, the “polymerase ribozyme fitness (log ratio)” value was 0.162.
Then A5C C8A C12U U54A C56U G63U C98G, with -7.29; and G71U G77C C89U G128C, with -4.14.
Then C3U G61A, with -0.131.
In the case of C15A G36U A121G, the “polymerase ribozyme fitness (log ratio)” value was 0.928.
C49U G117U: the “polymerase ribozyme fitness (log ratio)” value is -2.67.
In the case of C20G A41U C56G G63C A95U A119U, the “polymerase ribozyme fitness (log ratio)” value is -5.15.
With G48U C86A, the “polymerase ribozyme fitness (log ratio)” value is -0.67.
G10U C13U C73U C102G A119U C124A: the “polymerase ribozyme fitness (log ratio)” value was -5.74.
Turning to A43U C88A U109A, the “polymerase ribozyme fitness (log ratio)” value is -6.37.
Then C22U G93C C114A, with -6.86; and C13U A26C C56U, with -5.2.
Take G61C A119U: the “polymerase ribozyme fitness (log ratio)” value is -1.89.
In the case of G48C C114A, the “polymerase ribozyme fitness (log ratio)” value is -1.76.
Then G45C C104A G120A, with -1.45; and C49G A50U C72U, with -1.85; and C4G U59A G71U C82A, with -5.53.
Regarding C4U G69C C97U G122A, the “polymerase ribozyme fitness (log ratio)” value was -2.49.
Regarding C76U U96G U116G, the “polymerase ribozyme fitness (log ratio)” value is -3.28.
A29C C56U U81A: the “polymerase ribozyme fitness (log ratio)” value is -2.74.
Then G10A G63A C89A, with -3.25; and U9G C102U, with -1.48.
As for G71C C102G C114U C115U G120C, the “polymerase ribozyme fitness (log ratio)” value was -5.82.
Then C15G U78G, with -2.92.
On to G17A G122A, for which the “polymerase ribozyme fitness (log ratio)” value was -3.37.
Take A29G A118U G120C: the “polymerase ribozyme fitness (log ratio)” value is -1.87.
C22G G39U: the “polymerase ribozyme fitness (log ratio)” value is -3.5.
G42A A43U U96A: the “polymerase ribozyme fitness (log ratio)” value was -2.41.
For the variant G47A G120A, the “polymerase ribozyme fitness (log ratio)” value was -0.422.
On to C22U A37G G61U U112C U126G G128A, for which the “polymerase ribozyme fitness (log ratio)” value was -4.46.
As to G39U U54G C56A A83C C89U, the “polymerase ribozyme fitness (log ratio)” value was -3.7.
Then G17A U55A C72A, with -3.74; and C4A C102U C123A, with -3.39; and A6U G47A C53U C56A U59A A83U, with -1.88.
Then A37U G69A A83U U96A C124U U131A, with -1.63; and A6U C56U C72U, with 0.0866.
C28U G120C: the “polymerase ribozyme fitness (log ratio)” value is -1.37.
Then G60A C86A, with -0.942; and A74C U130A U131A U133A, with -2.13.
Then G71U C85G C88G C115A, with -5.75; and A2G U106G U125G, with -2.92; and C12A C102U, with -2.56.
For the variant C13A G69U, the “polymerase ribozyme fitness (log ratio)” value was -1.23.
Then A103U A119G, with -4.5; and C31G G48U C72U C86G A100C G120C, with -7.02; and C8G A26U G52A G63C, with -4.29.
As for A24G C64U U96G A111C, the “polymerase ribozyme fitness (log ratio)” value was -3.27.
Take C3G G61U C104A: the “polymerase ribozyme fitness (log ratio)” value was -3.47.
On to C4G C102A, for which the “polymerase ribozyme fitness (log ratio)” value is -3.83.
With G69A G122A, the “polymerase ribozyme fitness (log ratio)” value is -2.53.
As for C31G G58U G61A C62G A83U U109A C124U, the “polymerase ribozyme fitness (log ratio)” value was -6.38.
As for G10C C13U U78G C79U C89U, the “polymerase ribozyme fitness (log ratio)” value was -0.171.
Regarding C8A C28G C102A U109A, the “polymerase ribozyme fitness (log ratio)” value is -4.85.
Then C72G G113C, with -2.87; and A18U G35U U54G C88A U112A, with -7.02; and A50U C62G C86G A105U A108U C124G, with -7.62.
For C20A G39U, the “polymerase ribozyme fitness (log ratio)” value is -4.11.
In the case of C12G G48A, the “polymerase ribozyme fitness (log ratio)” value is -0.668.
Regarding C8U G44A C101U U116C, the “polymerase ribozyme fitness (log ratio)” value was -1.58.
For the variant A29C C31G G61U C101U A121U C124A, the “polymerase ribozyme fitness (log ratio)” value was -5.89.
Regarding U7G A18G U38G A50C C53U G113U, the “polymerase ribozyme fitness (log ratio)” value was -2.37.
Then U54C U96A, with -0.835.
For the variant U30C C72U U87A U112A, the “polymerase ribozyme fitness (log ratio)” value was -2.41.
Then C64U C72G U78A G127U U129C, with -1.9; and U116G A121G, with -0.679.
On to C13U G57A G110U, for which the “polymerase ribozyme fitness (log ratio)” value is -1.9.
Then G45A G71U G120A U133A, with -0.0049.
Then G45A U59C C62G, with -5.53; and C56U U112A U134A, with 2.39; and C40G C56A G57U C70A C72U G77A, with -4.22.
Then G45A A100U, with -2.26.
In the case of C70U C101U, the “polymerase ribozyme fitness (log ratio)” value is -0.854.
Turning to G61C A75G U81G, the “polymerase ribozyme fitness (log ratio)” value was -4.25.
Take U55G C72U: the “polymerase ribozyme fitness (log ratio)” value was -0.317.
Then G60C C94U C124U, with 1.26; and C12A C31A, with -6.73; and G60U A111C G122C, with -0.82.
Then A46C C79U C101U G113U, with -4.4.
